Where two headings read alike, the source gives them in different places.
Experiments:
GST-RanBP3 (human) = test: pull-down
Crm1-His6 (human) [1] = molecular target: Crm1-His6 (human) (UniProt O14980); test: ELISA
Crm1-His6 (human) [2] = molecular target: Crm1-His6 (human) (UniProt O14980); test: ELISA; remark: listed apart in the source

| Substance | ratio bound/total at 1 min, with RanBP1 (GST-RanBP3 (human)) | ratio bound/total at 1 min, without RanBP1 (GST-RanBP3 (human)) | ratio bound/total at 10 min, with RanBP1 (GST-RanBP3 (human)) | Kd (Crm1-His6 (human) [1]) [nM] | Kd (Crm1-His6 (human) [2]) [nM] |
| --- | --- | --- | --- | --- | --- |
| Crm1-His6 (from UniProt O14980 1-1071) (receptor) | 0.52 | 0.59 | 0.39 | – | – |
| GST-RanBP3 (natural protein) | – | – | – | 64 | 106 |
